In the RNAGym collection of RNA variant scans (doi:10.7554/elife.80360) one finds self-cleavage data, which are given here for 57 variants.

Sequences and labels used below:
B1: Hammerhead Ribozyme (parent)
chain: ACCGGAUGUGCUUUCCGGUCUGAUGAGUCCGUGAGGACGAAACAG

The data set covers variants of B1. Briefly: self-cleavage, relative activity (ratio to wild type); higher = more cleavage; co-transcriptional.
For the variant ACCGGACGCGCUUUCCGGUCUGAUGAGUCCGUGAGGACGAAACAG [U7C U9C], the self-cleavage came out at 1.28.

For the variant ACCGGACGAGCUUUCCGGUCUGAUGAGUCCGUGAGGACGAAACAG [U7C U9A], the self-cleavage came to 0.524.

For the variant ACCGGACGGGCUUUCCGGUCUGAUGAGUCCGUGAGGACGAAACAG [U7C U9G], the self-cleavage was found to be 0.667.

Take ACCGGACGUGCUUUCCGGUCUGAUGAGUCCGUGAGGACCAAACAG [U7C G39C]: the self-cleavage was found to be 0.331.

In the case of ACCGGACGUGCUUUCCGGUCUGAUGAGUCCGUGAGGACAAAACAG [U7C G39A], the self-cleavage was 0.469.

Turning to ACCGGACGUGCUUUCCGGUCUGAUGAGUCCGUGAGGACUAAACAG [U7C G39U], the self-cleavage was 0.426.

Take ACCGGACGUGCUUUCCGGUCUGAUGAGUCCGUGAGAACGAAACAG [U7C G36A]: the self-cleavage came out at 0.421.

For ACCGGACGUGCUUUCCGGUCUGAUGAGUCCGUGAGUACGAAACAG [U7C G36U], the self-cleavage worked out at 0.422.

For ACCGGACGUGCUUUCCGGUCUGAUGAGUCCGUGAGCACGAAACAG [U7C G36C], the self-cleavage was determined as 0.348.

Turning to ACCGGACGUGCUUUCCGGUCUGAUGAGUCCGUGAGGAGGAAACAG [U7C C38G], the self-cleavage amounted to 0.533.

Regarding ACCGGACGUGCUUUCCGGUCUGAUGAGUCCGUGAGGAAGAAACAG [U7C C38A], the self-cleavage stood at 0.702.

Take ACCGGACGUGCUUUCCGGUCUGAUGAGUCCGUGAGGAUGAAACAG [U7C C38U]: the self-cleavage was found to be 0.929.

On to ACCGGACGUGCUUUCCGGUCUGAUGAGUCCGUGAGGACGAAACAU [U7C G45U], for which the self-cleavage came to 0.622.

As to ACCGGACGUGCUUUCCGGUCUGAUGAGUCCGUGAGGACGAAACAA [U7C G45A], the self-cleavage was determined as 0.653.

Consider ACCGGACGUGCUUUCCGGUCUGAUGAGUCCGUGAGGACGAAACAC [U7C G45C], for which the self-cleavage is 0.454.

With ACCGGACGUGCUUUCCGAUCUGAUGAGUCCGUGAGGACGAAACAG [U7C G18A], the self-cleavage is 0.438.

ACCGGACGUGCUUUCCGCUCUGAUGAGUCCGUGAGGACGAAACAG [U7C G18C]: the self-cleavage worked out at 0.342.

As to ACCGGACGUGCUUUCCGUUCUGAUGAGUCCGUGAGGACGAAACAG [U7C G18U], the self-cleavage was determined as 0.61.

With ACCGGACGUGCUUUCCGGUCUGAUGAGUCGGUGAGGACGAAACAG [U7C C30G], the self-cleavage came out at 1.09.

With ACCGGACGUGCUUUCCGGUCUGAUGAGUCUGUGAGGACGAAACAG [U7C C30U], the self-cleavage came to 0.842.

For the variant ACCGGACGUGCUUUCCGGUCUGAUGAGUCAGUGAGGACGAAACAG [U7C C30A], the self-cleavage came out at 0.736.

For the variant ACCGGACGUGCUUUCCGGUCUGAUGAGUCCAUGAGGACGAAACAG [U7C G31A], the self-cleavage was 1.12.

Take ACCGGACGUGCUUUCCGGUCUGAUGAGUCCCUGAGGACGAAACAG [U7C G31C]: the self-cleavage was determined as 0.803.

In the case of ACCGGACGUGCUUUCCGGUCUGAUGAGUCCUUGAGGACGAAACAG [U7C G31U], the self-cleavage turned out to be 1.1.

As to ACCGGACGUGCUUUCCUGUCUGAUGAGUCCGUGAGGACGAAACAG [U7C G17U], the self-cleavage is 0.625.

With ACCGGACGUGCUUUCCAGUCUGAUGAGUCCGUGAGGACGAAACAG [U7C G17A], the self-cleavage was 0.32.

With ACCGGACGUGCUUUCCCGUCUGAUGAGUCCGUGAGGACGAAACAG [U7C G17C], the self-cleavage was 0.314.

On to ACCGGACCUGCUUUCCGGUCUGAUGAGUCCGUGAGGACGAAACAG [U7C G8C], for which the self-cleavage was 0.961.

For the variant ACCGGACAUGCUUUCCGGUCUGAUGAGUCCGUGAGGACGAAACAG [U7C G8A], the self-cleavage is 0.95.

For ACCGGACUUGCUUUCCGGUCUGAUGAGUCCGUGAGGACGAAACAG [U7C G8U], the self-cleavage was 1.38.

As to ACCGGACGUCCUUUCCGGUCUGAUGAGUCCGUGAGGACGAAACAG [U7C G10C], the self-cleavage came to 0.781.

Consider ACCGGACGUACUUUCCGGUCUGAUGAGUCCGUGAGGACGAAACAG [U7C G10A], for which the self-cleavage worked out at 1.02.

Consider ACCGGACGUUCUUUCCGGUCUGAUGAGUCCGUGAGGACGAAACAG [U7C G10U], for which the self-cleavage was found to be 1.12.

Consider ACCGGACGUGCUUUCCGGUCUGAUGAGUUCGUGAGGACGAAACAG [U7C C29U], for which the self-cleavage came to 0.992.

In the case of ACCGGACGUGCUUUCCGGUCUGAUCAGUCCGUGAGGACGAAACAG [U7C G25C], the self-cleavage is 0.319.

With ACCGGACGUGCUUUCCGGUCUGAUUAGUCCGUGAGGACGAAACAG [U7C G25U], the self-cleavage was 0.312.

For the variant ACCGGACGUGCUUUCCGGUCUGAUAAGUCCGUGAGGACGAAACAG [U7C G25A], the self-cleavage was determined as 0.402.

In the case of ACCGGACGUGCUUUCCGGUCUGAUGAUUCCGUGAGGACGAAACAG [U7C G27U], the self-cleavage is 0.412.

Consider ACCGGACGUGCUUUCCGGUCUGAUGACUCCGUGAGGACGAAACAG [U7C G27C], for which the self-cleavage came to 0.598.

ACCGGACGUGCUUUCCGGUCUGAUGAAUCCGUGAGGACGAAACAG [U7C G27A]: the self-cleavage was determined as 0.814.

On to ACCGGACGUGCUAUCCGGUCUGAUGAGUCCGUGAGGACGAAACAG [U7C U13A], for which the self-cleavage was 1.22.

Turning to ACCGGACGUGCUCUCCGGUCUGAUGAGUCCGUGAGGACGAAACAG [U7C U13C], the self-cleavage worked out at 1.4.

Consider ACCGGACGUGCUUUCCGGUCUGAUGAGUCCGUGAGGACGAAAUAG [U7C C43U], for which the self-cleavage worked out at 0.25.

Consider ACCGGACGUGCUUUCCGGUCUGAUGAGUCCGUGAGGACGAAAGAG [U7C C43G], for which the self-cleavage came to 0.346.

For ACCGGACGUGCUUUCCGGUCUGAUGAGUCCGUGAGGACGAAAAAG [U7C C43A], the self-cleavage amounted to 0.309.

Regarding ACCGGACGUGCUUUCCGGUCUGAUGAGUCCGUGAUGACGAAACAG [U7C G35U], the self-cleavage worked out at 0.439.

Regarding ACCGGACGUGCUUUCCGGUCUGAUGAGUCCGUGAAGACGAAACAG [U7C G35A], the self-cleavage was found to be 0.732.

As to ACCGGACGUGCUUUCCGGUCUGAUGAGUCCGUGACGACGAAACAG [U7C G35C], the self-cleavage worked out at 0.849.

Consider ACCGGACGUGCUUUCCGGUCUCAUGAGUCCGUGAGGACGAAACAG [U7C G22C], for which the self-cleavage is 0.338.

In the case of ACCGGACGUGCUUUCCGGUCUUAUGAGUCCGUGAGGACGAAACAG [U7C G22U], the self-cleavage came to 0.289.

With ACCGGACGUGCUUUCCGGUCUAAUGAGUCCGUGAGGACGAAACAG [U7C G22A], the self-cleavage amounted to 0.387.

Take ACCGGACGUGCUUUCCGGUCUGAUGAGUCCGUCAGGACGAAACAG [U7C G33C]: the self-cleavage was determined as 0.963.

With ACCGGACGUGCUUUCCGGUCUGAUGAGUCCGUAAGGACGAAACAG [U7C G33A], the self-cleavage worked out at 1.15.

In the case of ACCGGACGUGCUUUCCGGUCUGAUGAGUCCGUUAGGACGAAACAG [U7C G33U], the self-cleavage was found to be 0.755.

In the case of ACCGGACGUGCCUUCCGGUCUGAUGAGUCCGUGAGGACGAAACAG [U7C U12C], the self-cleavage was determined as 1.09.

As to ACCGGACGUGCAUUCCGGUCUGAUGAGUCCGUGAGGACGAAACAG [U7C U12A], the self-cleavage turned out to be 1.42.

As for ACCGGACGUGCGUUCCGGUCUGAUGAGUCCGUGAGGACGAAACAG [U7C U12G], the self-cleavage is 1.43.
